Data from article PMC7958859, “Molecular and Pharmacological Characterization of the Interaction between Human Geranylgeranyltransferase Type I and Ras-Related Protein Rap1B” (International Journal of Molecular Sciences, 2021).

Target: human GGTase-I (LgBiT-GGTase-I-β-subunit with co-transfected untagged FTase α-subunit) (human, UniProt P53609-1 2-377; P49354-1 1-379)
Experiment: split reporter (BiFC, NanoBiT); living HEK293 cells stably expressing the human A2BAR, transient co-transfection (50 ng DNA/well of each LgBiT and SmBiT plasmid, 100 ng/well untagged FTase α, ΔCQLL 50–200 ng/well); NanoGlo live-cell substrate 24 h after transfection, luminescence at 25 °C every 30 s, maxima plotted as RLU; also after treatment with vehicle (DMSO), adenosine, NECA, BAY60-6583, CGS-21680, forskolin, …
Conditions: partners not purified

B1: SmBiT-Rap1B ΔCQLL (domain or fragment)
chain: REYKLVVLGSGGVGKSALTVQFVQGIFVEKYDPTIEDSYRKQVEVDAQQCMLEILDTAGTEQFTAMRDLYMKNGQGFALVYSITAQSTFNDLQDLREQILRVKDTDDVPMILVGNKCDLEDERVVGKEQGQNLARQWNNCAFLESSAKSKINVNEIFYDLVRQINRKTPVPGKARKKSS
notes: human Rap1B lacking the C-terminal CAAX motif CQLL (from C181 to the end); the forward primer begins at codon 2, the reverse primer ends with Lys-Lys-Ser-Ser and a stop codon; Expression about 5-fold lower than SmBiT-Rap1B WT by Western blot; Glycine/serine linker and Ala-Ile-Ala between SmBiT and Rap1B; also called complete CAAX motif deletion mutant; source: HEK293 stably expressing the human …
fold lower luminescence than with Rap1B WT (50 ng DNA/well each): ~20 fold
fold lower luminescence than with Rap1B WT (ΔCQLL 200 ng DNA/well, WT 50 ng DNA/well): ~10 fold
